Drawing on paper PMC7375816, this text covers increase in ATPase activity of Hsp90 in the presence of 3 µM Aha1, normalised to the activity without Aha1 for one molecule.

The target in the test is Yeast Hsp90 wild-type FRET hetero-dimer (donor 61C + biotinylated acceptor 385C) (yeast | D. melanogaster).

B1: cochaperone Aha1 (natural protein)
chain: MVVNNPNNWHWVDKNCIGWAKEYFKQKLVGVEAGSVKDKKYAKIKSVSSIEGDCEVNQRKGKVISLFDLKITVLIEGHVDSKDGSALPFEGSINVPEVAFDSEASSYQFDISIFKETSELSEAKPLIRSELLPKLRQIFQQFGKDLLATHGNDIQVPESQVKSNYTRGNQKSSFTEIKDSASKPKKNALPSSTSTSAPVSSTNKVPQNGSGNSTSIYLEPTFNVPSSELYETFLDKQRILAWTRSAQFFNSGPKLETKEKFELFGGNVISELVSCEKDKKLVFHWKLKDWSAPFNSTIEMTFHESQEFHETKLQVKWTGIPVGEEDRVRANFEEYYVRSIKLTFGFGAVL
Take B1: the increase in ATPase activity of Hsp90 in the presence of 3 µM Aha1, normalised to the activity without Aha1 amounted to 17 fold.
